Blank lines part the entries; values can stand above or below the binder they belong to.
How the values were obtained:
[1] = molecular target: full-length Grb2 (Grb2^FL) (human, UniProt P62993 1-217); test: SEC-MALS
[2] = molecular target: T1, Themis^1-563 (truncated Themis, residues 1-563) (human, UniProt Q8N1K5); test: cryo-EM structure
[3] = molecular target: tagless Themis^1-563 (co-expressed with His-tagged Grb2^FL) (human, UniProt Q8N1K5); test: cryo-EM structure
[4] = molecular target: Themis^1-563-Grb2^FL complex (co-expressed, pre-formed) (human, UniProt Q8N1K5;P62993); test: SEC-MALS
[5] = molecular target: T1, Themis^1-563 (truncated Themis, …); test: BLI

stoichiometry N [1]: 1
B1: tagless Themis^1-563 (co-expressed with His-tagged Grb2^FL) (domain or fragment)
chain: MALSLEEFVHSLDLRTLPRVLEIQAGIYLEGSIYEMFGNECCFSTGEVIKITGLKVKKIIAEICEQIEGCESLQPFELPMNFPGLFKIVADKTPYLTMEEITRTIHIGPSRLGHPCFYHQKDIKLENLIIKQGEQIMLNSVEEIDGEIMVSCAVARNHQTHSFNLPLSQEGEFYECEDERIYTLKEIVEWKIPKNRTRTVNLTDFSNKWDSTNPFPKDFYGTLILKPVYEIQGVMKFRKDIIRILPSLDVEVKDITDSYDANWFLQLLSTEDLFEMTSKEFPIVTEVIEAPEGNHLPQSILQPGKTIVIHKKYQASRILASEIRSNFPKRHFLIPTSYKGKFKRRPREFPTAYDLEIAKSEKEPLHVVATKAFHSPHDKLSSVSVGDQFLVHQSETTEVLCEGIKKVVNVLACEKILKKSYEAALLPLYMEGGFVEVIHDKKQYPISELCKQFRLPFNVKVSVRDLSIEEDVLAATPGLQLEEDITDSYLLISDFANPTECWEIPVGRLNMTVQLVSNFSRDAEPFLVRTLVEEITEEQYYMMRRYESSASHPPPRPPKHPSV

binding result [2]: binds | binding result [3]: binds
B2: PMb256 (Pro-Macrobody of Nb256) (VHH)
VHH: QVQLQESGGGLVQAGGSLRLSCAASGRTFSTYAMGWFRQAPGKEREFVAAILWSDGSTYYADSVKGRFTISRDNAKNTVYLQMNSLKPEDTAVYYCAADYTGVRYDYWGQGTQVTVPP

binding result [4]: binds | binding result [5]: binds
B3: Nb256 (Themis-specific single domain VHH camelid antibody fragment) (VHH)
VHH: QVQLQESGGGLVQAGGSLRLSCAASGRTFSTYAMGWFRQAPGKEREFVAAILWSDGSTYYADSVKGRFTISRDNAKNTVYLQMNSLKPEDTAVYYCAADYTGVRYDYWGQGTQVTVPP
